Reference: paper PMC8872793

Target: Mtb UvrD1 WT (Mycobacterium tuberculosis H37Rv, UniProt P9WMQ1 1-771)
Assay: tryptophan fluorescence dissociation kinetics

Chain of Mtb UvrD1 WT (P9WMQ1 whole entry): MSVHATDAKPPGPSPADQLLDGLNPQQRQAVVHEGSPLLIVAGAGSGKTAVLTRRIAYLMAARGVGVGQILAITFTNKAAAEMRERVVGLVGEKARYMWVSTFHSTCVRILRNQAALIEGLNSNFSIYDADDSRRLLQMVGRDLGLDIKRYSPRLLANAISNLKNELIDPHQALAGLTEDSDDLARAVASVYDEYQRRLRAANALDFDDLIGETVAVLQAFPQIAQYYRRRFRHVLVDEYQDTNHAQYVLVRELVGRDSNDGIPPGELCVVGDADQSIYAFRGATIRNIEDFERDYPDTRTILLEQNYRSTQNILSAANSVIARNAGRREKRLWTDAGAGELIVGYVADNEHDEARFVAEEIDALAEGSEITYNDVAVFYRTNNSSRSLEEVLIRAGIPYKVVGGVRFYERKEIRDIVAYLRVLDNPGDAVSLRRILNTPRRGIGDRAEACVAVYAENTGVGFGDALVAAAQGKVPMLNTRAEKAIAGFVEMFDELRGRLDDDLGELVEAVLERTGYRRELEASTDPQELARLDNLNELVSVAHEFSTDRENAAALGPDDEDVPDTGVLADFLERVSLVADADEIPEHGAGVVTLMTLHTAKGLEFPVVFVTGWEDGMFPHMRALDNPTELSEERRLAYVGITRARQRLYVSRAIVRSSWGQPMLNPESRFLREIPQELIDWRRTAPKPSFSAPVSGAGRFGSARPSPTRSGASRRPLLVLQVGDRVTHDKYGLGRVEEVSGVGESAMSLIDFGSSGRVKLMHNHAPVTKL

B1: (dT)100 (ssDNA)
DNA: TTTTTTTTTTTTTTTTTTTTTTTTTTTTTTTTTTTTTTTTTTTTTTTTTTTTTTTTTTTTTTTTTTTTTTTTTTTTTTTTTTTTTTTTTTTTTTTTTTTT
B1: binds.
